Results on one substance are retold here after paper doi:10.1101/2022.06.15.496202.

As a reminder, the stoichiometry N is a count of units in the complex or per binding partner.

The assay concerns the target Cas7c (D. vulgaris). Kind of assay: cryo-EM structure.

Cas7c (natural protein) gave a stoichiometry N of 7.
